Results: patent US20210040232A1 (Regeneron, published 2021)

T1: soluble Macaca fascicularis CTLA-4 expressed with a C-terminal myc-myc-polyhistidine tag (Macaca fascicularis)
T1 construct: soluble protein; also called mf CTLA-4.mmh; mfCTLA4.mmh
T1 chain: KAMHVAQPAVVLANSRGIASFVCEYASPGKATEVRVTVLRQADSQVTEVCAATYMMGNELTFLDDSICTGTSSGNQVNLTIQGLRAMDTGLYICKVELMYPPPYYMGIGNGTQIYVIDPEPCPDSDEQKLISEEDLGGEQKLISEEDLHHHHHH

B1: H1H19264P (antibody, human IgG1, V domains shown)
VH: QVQLVQSGAEVKKPGASVKVSCKASDYTFTSYGISWVRQAPGQGLEWMGWISVYNGNINYAQKFKGRVTMTTDTSTSTAYMELRSLRSDDMAVYYCARVTQFGMDVWGQGTTVTVSS
VL: DIQMTQSPSSLSASVGDRVTITCRASQSISSNLNWYQQNPGKAPKLLIYTTSSLQGGVPSRFSGSGSGTDFTLTISSLQPEDFATYYCQQSFRTPFTFGPGTKVDIK
B2: H1H19307P (antibody, human IgG1, V domains shown)
VH: EVQLVESGGGLVQPGGSLRLACAASGFTFSDYYMDWVRQVPGKGLEWVGRSRDKANSFTTEYVASVKGRFTISREDSKNSVYLQMNSLKTEDTAVYYCARTNYDFSLDVWGQGTTVTVSS
VL: DIQMTQSPSSLSASVGDRVTITCRASQDINNYLAWFQQKPGNAPKSLIYAASSLQSGVPSKFSGSGSGTDFTLTISSLQPEDFATYYCQQYSTYPITFGQGTRLEIK
B3: H1H19312P (antibody, human IgG1, V domains shown)
VH: QVQLQESGPGLVKPSETLSLTCTVSGGSISSYHWSWIRQPLGKGLEWIGYIYYSGSTNYNPSLKSRVTISVDTSKNQFSLKLSSVTAADTAVYYCARGGSSIWPFDYWGQGTLVTVSS
VL: DIQMTQSPSTLSASVGDRVTITCRASQSISSWLAWYQQKSGKAPKLLISKASTLESGVPSRFSGSGSGTEFTLTISSLQPDDFATYYCQQYNIYSWTFGQGTKVEIK
B4: H1H19314P2 (antibody, human IgG1, V domains shown)
VH: QVQLVQSGAEVKKPGASVKVSCKASGYTLSSYGISWVRQAPGQGLEWMGWISAYNGNTNYAQKLQGRLTMTTDTSTSTAYMELRSLRSDDTAVYYCSRDGPFKISFFGMDVWGQGTTVTVSS
VL: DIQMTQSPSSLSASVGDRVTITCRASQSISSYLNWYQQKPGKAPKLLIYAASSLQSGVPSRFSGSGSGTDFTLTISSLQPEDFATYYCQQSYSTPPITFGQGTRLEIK
B5: H1H19305P (antibody, human IgG1, V domains shown)
VH: QVQLQESGPGLVKPSQTLSLTCTVSGGSITSGGYYWSWIRQHPGKGLEWIGYIFYSGITNYNPSLKSRVTISVDTSKNQFSLKLTSVTAADTAVYYCATYNSLRLYYGMDVWGQGTTVTVSS
VL: DVVMTQSPLSLPVILGQPASISCRSSQSLVYGDGNTYLNWFQQRPGQSPRRLIYKVSNRDSGVPDRFSGSGSGTDFTLKISRVEAEDVGVYYCMQSTHWPLTFGGGTKVEIK
B6: H1H20361N (antibody, human IgG1, V domains shown)
VH: QVQLQESGPGLVKPSQTLSLTCTVSGGSINNGGHYWTWIRQHPGKGLEWIGYIYYIGTTYYNPSLESRLSLSVDTSKNQFSLKLSSVTAADTAIYYCARSSLSVSEAFDVWGQGTMVTVSS
VL: DIQMTQSPSSLSASVGDRITITCRGSQNIGSFLSWYQQRPGKAPKLLIFGAYNLQGGVPSRFSGSGSGTDFTLTISSLQPEDFATYFCQQSYSTPPITFGQGTRLEIK
notes: here with human IgG1 Fc (H1H)
B7: H1H20370N (antibody, human IgG1, V domains shown)
VH: QVQLHESGPGLVKPSQTLSLTCSVSGGSISNGGYYWSWIRQHPGQGLEWIGYIYYIGNTYYNPSLESRVTMSIDTSKNQFSLKLSSVTAADTAIYYCARQEFVPGAEYFLHWGQGILVTVSS
VL: DIRMTQSPSSLSASVGDRVTITCRASQTVNTFLNWYQQKPGKAPKLLIFGASSLQSGVPSRFSGSGSGTDFTLTISGLQPEDFAIYYCQQSYSVPPITFGQGTRLEIE
notes: here with human IgG1 Fc (H1H)
B8: H1H20372N (antibody, human IgG1, V domains shown)
VH: EVQLVESGGGLVQPGRSLRLSCAGTGFIFDDYAMHWVRQAPGKGLEWVSGISWNSNSLGYADSVKGRFTISRDNAKKSLYLQMSSLRAEDTALYYCVKDVTRLELRGFLDYWGQGTQVTVSS
VL: DIQMTQSPSSLSASVGDRVTITCRASQDIRNDLGWHQQKSGKAPKSLIYAASSLQSGAPSRFSGSGSGTEFTLTISSLQPEDSATYYCLQQNSYPPTFGQGTKVEIK
notes: here with human IgG1 Fc (H1H)
B9: H1H20373N (antibody, human IgG1, V domains shown)
VH: EVQLLESGGGLVQPGGSLRLSCAASGFTFSSYAMSWVRQAPGKGLEWVSDISGSGLSTYYADSVKGRFAISRDNSKNMLYLQMNRLRAEDTAVYYCAKEPSHWNGEAFDIWGQGTMVTVSS
VL: DIQMTQSPSSVSASVGDRVTITCRASQDISSWLAWYQQKPGKAPKLLIYTTANLQSGVPSRFSGSGSGTDFTLTISSLQSEDFATYYCQQANSFPFTFGSGTKVDIK
notes: here with human IgG1 Fc (H1H)
B10: H1H20375N (antibody, human IgG1, V domains shown)
VH: QLQLQESGPGLVKPSETLSFTCTVSGGSISSNYYYWGWVRQSPGKGLEWIGSIYHTGNAYDNPSLKSRVTISVDTSKNQFSLNLNSVTAADTAIYYCARHHSSSSWWYFDVWGRGTLVIVSS
VL: EIVLTQSPDTLSLSPGERATLSCRASQTVSNSHLAWYQQKPGQAPRLLIYGTSSRATGIPDRFSGSGSGTDFSLTIIRLEPDDFAVYFCQQHESSPPTFGQGAKLEIK
notes: here with human IgG1 Fc (H1H)
B11: H1H20386N (antibody, human IgG1, V domains shown)
VH: QVQLVESGGGVVQPGRSLRLSCAASGFTVNRYGIHWVRQAPGKGLEWVAVTWYDGRNKYFADSVKGRFSFSRDSSTNTLYLQMNSLRAEDTAVYYCARGGLFGYFDYWGQGTLVTVSS
VL: EIVLTQSPDTLSLSPGERATLSCRASQSVAGSYLAWYQQKPGQAPRLLIYGASSRATGIPDRFSGSGSGTDFTLTISRLEPEDFAVYYCQQYGTSPWTFGQGTKVEIT
notes: here with human IgG1 Fc (H1H)
B12: H2M20379N (antibody, mouse IgG2, V domains shown)
VH: QVQLVESGGGVVQPGRSLRLSCAASGITFSSYGMHWVRQAPGKGLEWVALTSYDGSKKYYSDSVKGRFTISRDNSKNTLYLQMNSLRPEDTAVYYCAKDKGGDDYYGMDVWGQGTTVTVSS
VL: EIVLTQSPGTLSLSPGERATLSCRASQWISSSYLAWYQQKPGQAPRLLIYGAFSRAPGIPGRFSGSGSGTDFTLTISRLEPEDFAVYYCQQYGSSPYTFGQGTKLEIN
notes: hybridoma antibody, human variable domains, mouse IgG2 Fc (H2M)
B13: H2M20385N (antibody, mouse IgG2, V domains shown)
VH: QVQLVQSGAEVKKPGASVKVSCKTSGYTFTNNGISWVRQVPGQGLEWMGWISPYNGNTKYAQKFQGRVTMTTDTSTTTVYMDVRSLRSDDTAVYFCARDGPITISYFGMDVWGQGTTVTVSS
VL: DIQMTQSPSSLSASVGDRVTITCRASQSISTYLNWYQQKPGKAPKLLIYAASTLQSGVPSRFGGSGSGTDFTLTVSSLQPEDFATYYCQQSYSTPPITFGQGTRLEIN
notes: as for B12
B14: H2M20386N (antibody, mouse IgG2, V domains shown)
VH: B11 VH
VL: B11 VL
notes: as for B12
B15: H2M20387N (antibody, mouse IgG2, V domains shown)
VH: QVQLVESGGGVVQPGRSLRLSCAASGFTFSSYGIHWVRQAPGKGLEWVAVIWYGGNNKYYADSVKGRFTISRDNSKNTLYLQMNSLRAEDTALYHCARSGNFGAFDIWGQGTMVTVSS
VL: EIVLTQSPGTLSLSPGERATLSCRASQSVSSYLAWYQQKPGQAPRLLIYGASSRATGIPDRFSGSGSGTDFILTINRLEPEDFAVYYCQHYGNSPWTFGQGTKVEIK
notes: as for B12

Target: T1, soluble Macaca fascicularis CTLA-4 …
Test: SPR, mAb capture, 25 C

Kd [nM] | koff [s⁻¹] | kon [M⁻¹ s⁻¹] | t1/2 [min] | Binder
20.3 | 0.000994 | 49000 | 11.6 | B1
1.4 | 0.000292 | 209000 | 39.5 | B2
2.28 | 0.00076 | 333000 | 15.2 | B3
8.57 | 0.000913 | 107000 | 12.6 | B4

Each binder was assayed against T2, soluble human CTLA-4 expressed with a C-terminal myc-myc-polyhistidine tag (human) (assay: SPR, mAb capture, 25 C).
T2 construct: soluble protein; also called hCTLA-4.mmh; hCTLA4.mmh

Kd [nM] | koff [s⁻¹] | kon [M⁻¹ s⁻¹] | t1/2 [min] | Binder
12.1 | 0.000731 | 60400 | 15.8 | B1
4.19 |  |  | 9.5 | B5
1.31 | 0.000284 | 217000 | 40.6 | B2
3.29 | 0.00105 | 320000 | 11 | B3
9.87 | 0.00113 | 115000 | 10.2 | B4
32.1 | 0.00199 | 62100 | 5.8 | B6
3.43 | 0.000588 | 172000 | 19.6 | B7
4.55 | 0.000367 | 80500 | 31.5 | B8
0.766 | 0.000401 | 523000 | 28.8 | B9
66.5 | 0.00279 | 41900 | 4.1 | B10
10.5 | 0.00194 | 185000 | 6 | B11

What follows are binders tested against T3, human CTLA-4 (amino acids M1-N223) on stably transfected VI-fibroblast cells (human, UniProt P16410 36-223) (assay: ECL cell binding, VI-fibroblast/hCTLA-4 cells;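 note: antibodies bound to the cells on carbon electrode plates, detected via SULFO-TAG anti-IgG secondary (1 h, RT), electrochemiluminescence read as RLU over a concentration range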).
T3 construct: also called VI-fibroblast/hCTLA-4
T3 sequence (P16410 36-223 limits assumed): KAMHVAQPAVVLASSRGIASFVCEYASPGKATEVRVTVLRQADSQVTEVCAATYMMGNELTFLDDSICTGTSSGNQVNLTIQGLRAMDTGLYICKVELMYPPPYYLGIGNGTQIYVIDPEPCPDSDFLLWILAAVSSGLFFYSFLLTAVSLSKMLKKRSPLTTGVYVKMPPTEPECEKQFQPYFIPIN

EC50 [nM] | ratio of RLU signal to parental VI-fibroblast at 0.4 nM Ab [ratio] | ratio of RLU signal to parental VI-fibroblast at 0.6 nM Ab [ratio] | Binder
0.84 |  |  | B5
3.7 | 7 |  | B2
0.7 | 14 |  | B3
3.4 | 8 |  | B4
0.092 |  | 28 | B12
5.5 |  | 8 | B13
 |  | 3 | B14
 |  | 3 | B15

These binders were tested against T4, recombinant hCTLA-4-mFc (human CTLA-4 extracellular domain with a C-terminal Fc portion of mouse IgG2a) (human) (assay: competition ELISA, 200 pM hCTLA-4-mFc on plate-coated hB7-1-hIgG1-6His).
T4 construct: also called dimeric CTLA-4 protein
T4 sequence (chain, as listed by the source limits assumed): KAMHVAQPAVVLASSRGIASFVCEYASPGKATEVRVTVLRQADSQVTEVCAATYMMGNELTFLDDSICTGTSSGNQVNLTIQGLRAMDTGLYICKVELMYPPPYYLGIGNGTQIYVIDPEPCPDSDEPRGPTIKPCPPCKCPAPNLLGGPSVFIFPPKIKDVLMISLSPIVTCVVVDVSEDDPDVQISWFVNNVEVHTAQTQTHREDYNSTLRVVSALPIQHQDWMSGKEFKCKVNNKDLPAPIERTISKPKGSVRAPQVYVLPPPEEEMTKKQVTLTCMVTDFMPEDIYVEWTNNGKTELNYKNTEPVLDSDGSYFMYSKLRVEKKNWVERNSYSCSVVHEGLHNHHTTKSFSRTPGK

% Blockade [%] | IC50 [nM] | Binder
8 |  | B1
98 | 0.19 | B5
99 | 0.18 | B2
97 | 0.2 | B3
0 |  | B4
73 | 69 | B6
95 | 0.86 | B7
98 | 2.5 | B8
22 |  | B9
13 |  | B10
94 | 18 | B11

What follows are binders tested against T4, recombinant hCTLA-4-mFc (human CTLA-4 …) (assay: competition ELISA, 400 pM hCTLA-4-mFc on plate-coated hB7-2-hIgG1-6His).

% Blockade [%] | IC50 [nM] | Binder
43 |  | B1
99 | 0.36 | B5
99 | 0.29 | B2
99 | 0.51 | B3
7 |  | B4
82 | 65 | B6
96 | 0.99 | B7
98 | 0.99 | B8
91 | 34 | B9
29 |  | B10
96 | 7.7 | B11
